Measured values published in the supplement of paper PMC10567573.

B1: DCAF4 (parent)
chain: TTKCVRQYEGHVNEYAYLPLHVHE

Variants of: B1
Test: protein stability index of a GFP-peptide fusion (GPS, HEK-293T) (PSI 1-6); higher = more stable
Conditions: c terminus: a fixed tail appended
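Also: lentivirally expressed fusions sorted by FACS into six bins by GFP to DsRed ratio, PSI derived from sequencing read proportions per bin multiplied by bin number.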

Protein stability index, by site and new letter:
E9: A 2.29 | I 1.87 | R 2.18 | K 2.13 | D 3.04 | G 2.55 | N 2.52
T2: E 3.23 | L 2.15 | C 2.43 | A 2.47 | P 3.05 | I 2.19 | R 2.41 | W 2.43 | H 2.32 | D 3.24 | K 2.64 | Y 2.01 | Q 2.41 | V 2.46 | F 2.47 | N 2.99 | G 2.69 | S 2.74 | M 2.52
K3: I 1.73 | T 2.71 | L 2.6 | R 2.12 | M 2.07 | W 1.82 | H 2.71 | S 2.71 | F 1.55 | D 3.56 | N 2.98 | V 2.02 | E 3.58 | Q 3.25 | Y 1.6 | P 3.58 | G 2.89 | C 2.62 | A 3.11
Y15: N 2.88 | C 3.56 | Q 3.32 | I 3.09 | E 3.6 | R 3.43 | W 2.12 | H 3.02 | K 2.85 | F 3.08 | M 2.96 | S 3.28 | A 3.57 | L 2.97 | D 3.36 | P 3.51 | V 3 | T 2.59 | G 3.84
H11: C 2.1 | G 2.38 | E 3.17 | D 2.88 | Y 2.84 | Q 2.53 | V 3.56 | R 2.44 | W 1.81 | S 2.6 | F 1.88 | N 2.96 | P 3.25 | I 2.75 | A 2.7 | T 3.25 | L 1.95 | M 2.26 | K 2.66
Y8: N 3.31 | R 2.94 | W 2.42 | H 2.64 | C 2.66 | D 3.75 | I 2.82 | T 3.15 | F 2.69 | Q 3.39 | A 2.65 | V 3.17 | L 2.79 | P 2.42 | K 3.52 | M 2.89 | S 3.19 | E 4.03 | G 3.12
T1: W 1.92 | Y 1.69 | V 2.22 | R 2.22 | Q 2.74 | M 2.19 | N 2.4 | P 2.48 | S 3.81
R6: P 2.26 | M 2.38 | D 2.87 | S 2.01 | E 3.12 | T 2.49 | W 1.73 | V 2.1 | H 2.52 | C 2.53 | N 2.95 | L 2.18 | K 2.63 | G 2.58 | F 1.8 | Y 2.4 | A 3.02 | Q 3.31 | I 2.11
E14: S 2.05 | H 2.05 | N 2.47 | K 2.64 | A 1.85 | M 1.43 | C 2.03 | W 1.14 | L 1.63 | Y 1.64 | Q 2.35 | F 3.16 | G 2.29 | V 1.44 | T 2.23 | P 2.57 | D 2.79 | R 2.34
Q7: C 2.15 | V 2.24 | G 2.13 | L 2.28 | F 1.87 | D 2.8 | Y 1.79 | T 2.97 | S 2.75 | K 2.77 | I 2.17 | E 2.96 | P 2.06 | W 1.88 | R 2.28 | A 2.52 | H 2.64 | N 2.54 | M 2.19
